Consider two molecules from US20050048527, “Endonuclease-substrate complexes” (Third Wave Technologies, Inc., published 2005).

Assay in all cases: cleavage_in_vitro; rate vs Pfu FEN1
For one data set, the target named is T1, Pho1M FEN1 (Pyrococcus horikoshii, UniProt O50123 SEQ:1-343).
T1 chain: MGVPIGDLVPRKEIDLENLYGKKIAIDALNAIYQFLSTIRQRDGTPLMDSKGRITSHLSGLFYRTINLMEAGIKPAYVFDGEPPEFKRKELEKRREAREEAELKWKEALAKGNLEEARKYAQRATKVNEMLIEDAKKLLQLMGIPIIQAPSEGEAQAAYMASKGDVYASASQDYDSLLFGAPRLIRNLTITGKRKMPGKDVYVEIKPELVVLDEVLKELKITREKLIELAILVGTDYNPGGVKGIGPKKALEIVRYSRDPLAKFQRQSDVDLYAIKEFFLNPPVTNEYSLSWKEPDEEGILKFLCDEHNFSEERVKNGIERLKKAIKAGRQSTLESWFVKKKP
Here is the method:
(§1) For the evaluation of chimeric enzymes, standard tests were performed to measure the performance and specificity of the enzymes. […] 10 μl reactions are run at 59 C for between 5 to 60 minutes depending on the enzyme. Reactions are stopped by the addition of 10 μl of 95% formamide, 0.02% methyl violet. 1 μl of the mixture is run on a denaturing 20% acrylamide gel and electrophoresed for 15 minutes or until good separation is achieved between cleaved and uncleaved probe. The gels are scanned using an FMBIO fluorescent gel scanner and the bands are quantified with FMBIOAnalysis software. Cleavage rates are determined from the percent probe cleaved. Cleavage rate for the INVADER substrate is defined as the number of probe molecules cleaved per target molecule per minute. In Table 5, below, the cleavage rates for the mutant enzymes are compared to the cleavage rates for unmodified Pfu FEN1 enzyme on the INVADER assay and X-structure substrates.
(§2) The X-structure substrate is used to determine the amount of background cleavage an enzyme will carry out in an INVADER reaction. It mimics the structure created by uncut primary probe and secondary FRET cassette in the INVADER squared reaction. […] 10 μl reactions are run at 59 C for between 3 to 30 minutes depending on the enzyme. Reactions are stopped by the addition of 10 μl of 95% formamide, 0.02% methyl violet. 1 μl of the mixture is run on a denaturing 20% acrylamide gel and electophoresed for 15 minutes or until good separation is achieved between cleaved and uncleaved probe. The gels are scanned using an FMBIO fluorescent gel scanner and the bands are quantified with FMBIOAnalysis software. Cleavage rates are determined from the percent probe cleaved.

The target in a further data set is T2, Afu FEN1 (Archaeoglobus fulgidus, UniProt O29975 SEQ:1-336).
T2 sequence: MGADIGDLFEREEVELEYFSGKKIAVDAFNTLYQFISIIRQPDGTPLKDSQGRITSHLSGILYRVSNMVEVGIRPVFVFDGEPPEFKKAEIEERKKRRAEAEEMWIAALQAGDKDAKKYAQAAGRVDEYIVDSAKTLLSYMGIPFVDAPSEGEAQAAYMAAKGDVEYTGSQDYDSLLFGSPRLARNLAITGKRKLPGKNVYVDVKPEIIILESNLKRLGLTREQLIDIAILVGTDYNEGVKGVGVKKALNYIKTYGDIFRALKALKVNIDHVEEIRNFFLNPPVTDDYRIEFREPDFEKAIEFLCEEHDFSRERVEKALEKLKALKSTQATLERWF
How it is done:
as §1, §2

The target of the next data set is T3, Pfu2M FEN1 (Pyrococcus furiosus, UniProt O93634 SEQ:1-340).
T3 chain: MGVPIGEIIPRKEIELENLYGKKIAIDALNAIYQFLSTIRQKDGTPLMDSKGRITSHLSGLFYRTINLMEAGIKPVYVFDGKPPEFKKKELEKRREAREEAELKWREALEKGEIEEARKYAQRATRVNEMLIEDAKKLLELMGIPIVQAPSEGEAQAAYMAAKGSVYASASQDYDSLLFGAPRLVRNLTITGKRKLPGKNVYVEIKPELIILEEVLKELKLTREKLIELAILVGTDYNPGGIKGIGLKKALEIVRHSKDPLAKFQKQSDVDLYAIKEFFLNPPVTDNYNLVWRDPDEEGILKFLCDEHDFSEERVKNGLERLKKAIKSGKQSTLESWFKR
How it is done:
as §1, §2

In another data set the target is T4, Pfu1M FEN1 (Pyrococcus furiosus, UniProt O93634 SEQ:1-340).
T4 chain: T3 chain with L103E
Here is the method:
as §1, §2

Another data set addresses T5, Pho3M FEN1 (Pyrococcus horikoshii, UniProt O50123 SEQ:1-343).
T5 chain: T1 chain with L103E, A110E
How it is done: as §1, §2

In another data set the target is T6, Pho2M FEN1 (Pyrococcus horikoshii, UniProt O50123 SEQ:1-343).
T6 chain: T1 chain with L103E
Here is the method:
as §1, §2

Where [1] appears, read: label: 5'-biotin target, 5'-TET probe, hairpin target-INVADER with overlapping probe flap.

Residue numbers refer to the chain shown, from its start.

B1: INVADER substrate 594-12-1/203-91-1 (structured_DNA)
DNA 1: TTTTTCACGGCAGTTGGTGCGCCTCGGAACGAGGCGCACA
DNA 2: TTTTCAACTGCCGTGA
B1: the cleavage rate with Pho1M FEN1 (setting [1]) worked out at 1.1; with Afu FEN1 (setting [1]), 0.52; with Pfu2M FEN1 (setting [1]), 1.4; with Pfu1M FEN1 (setting [1]) it was 0.83; in the data set with Pho3M FEN1 (setting [1]), 0.95; in the data set with Pho2M FEN1 (setting [1]), 1.6.

B2: X-structure 203-81-2/203-91-2 (structured_DNA)
DNA 1: TTTTCAACTGCTTAGAGAATCTAAGCAGTTGGTGCGCCTCGTTAA
DNA 2: AACGAGGCGCACATT
modifications: 3'-NH2 on first strand
As for B2, the cleavage rate with Pho1M FEN1 (label: 5'-TET, X-structure) was 18; in the data set with Afu FEN1 (label: 5'-TET, X-structure), 0.5; with Pfu2M FEN1 (label: 5'-TET, X-structure), 3; in the data set with Pfu1M FEN1 (label: 5'-TET, X-structure), 0.85; with Pho3M FEN1 (label: 5'-TET, X-structure), 6.6; with Pho2M FEN1 (label: 5'-TET, X-structure), 31.
